# The RNAGym collection of RNA variant scans (doi:10.7554/elife.80360)
# B1: CPEB3 Ribozyme (parent)
# chain: GGGGGCCACAGCAGAAGCGUUCACGUCGCGGCCCCUGUCAGAUUCUGGUGAAUCUGCGAAUUCUGCUGU
# Variants of: B1
# Experiment: self-cleavage, relative activity (ratio to wild type); higher = more cleavage; co-transcriptional
row,Variant,self-cleavage
1,GGGGGCCACAGCAGAAGCGUUCACGUCGCGGCCCCUGUCAGGUUCUGGUGGAUCUGCGAAUUCUGCUGU [A42G A51G],0.894
2,GGGGGCCACAGCAGAAGCGUUCACGUCGCGGCCCCUGUCAGCUUCUCGUGAAUCUGCGAAUUCUGCUGU [A42C G47C],0.977
3,GGGGGCCACAGCAGAAGCGUUCACGUCGCGGCCCCUGUCAGCUUCUUGUGAAUCUGCGAAUUCUGCUGU [A42C G47U],0.958
4,GGGGGCCACAGCAGAAGCGUUCACGUCGCGGCCCCUGUCAGGUUCUCGUGAAUCUGCGAAUUCUGCUGU [A42G G47C],0.941
5,GGGGGCCACAGCAGAAGCGUUCACGUCGCGGCCCCUGUCAGCUUCUGGUGAAUCUGCGAAUUCUGCGGU [A42C U67G],0.919
6,GGGGGCCACAGCAGAAGCGUUCACGUCGCGGCCCCUGUCAGGUUCUGGUGAAUAUGCGAAUUCUGCUGU [A42G C54A],0.708
7,GGGGGCCACAGCAGAAGCGUUCACGUCGCGGCCCCUGUCAGGUUCUGGUGAAUGUGCGAAUUCUGCUGU [A42G C54G],0.71
8,GGGGGCCACAGCAGAAGCGUUCACGUCGCGGCCCCUGUCAGCUUCUGGUGAAUCUGCGAAUUUUGCUGU [A42C C63U],0.926
9,GGGGGCCACAGCAGAAGCGUUCACGUCGCGGCCCCUGUCAGCUUCUGGUGAAUCUGCGAAUUCUUCUGU [A42C G65U],0.574
10,GGGGGCCACAGCAGAAGCGUUCACGUCGCGGCCCCUGUCAGCUUCUGGUGAAUCUGCGAAUUCUCCUGU [A42C G65C],0.474
11,GGGGGCCACAGCAGAAGCGUUCACGUCGCGGCCCCUGUCAGCUUCUGGUGAAGCUGCGAAUUCUGCUGU [A42C U53G],1.04
12,GGGGGCCACAGCAGAAGCGUUCACGUCGCGGCCCCUGUCAGCUUCUGGUGAACCUGCGAAUUCUGCUGU [A42C U53C],0.939
13,GGGGGCCACAGCAGAAGCGUUCACGUCGCGGCCCCUGUCAGCUUCUGGUGAAUUUGCGAAUUCUGCUGU [A42C C54U],0.822
14,GGGGGCCACAGCAGAAGCGUUCACGUCGCGGCCCCUGUCAGCUUCUGGUGAAUAUGCGAAUUCUGCUGU [A42C C54A],0.707
15,GGGGGCCACAGCAGAAGCGUUCACGUCGCGGCCCCUGUCAGCUUCUGGUUAAUCUGCGAAUUCUGCUGU [A42C G50U],0.932
16,GGGGGCCACAGCAGAAGCGUUCACGUCGCGGCCCCUGUCAGCUUCUGGUGAAUCUGCGAAGUCUGCUGU [A42C U61G],0.518
17,GGGGGCCACAGCAGAAGCGUUCACGUCGCGGCCCCUGUCAGCUUCUGGUGAAUCUGCGAAUUCCGCUGU [A42C U64C],0.637
18,GGGGGCCACAGCAGAAGCGUUCACGUCGCGGCCCCUGUCAGCUUCUGGUGAAUCUGCGAAUUCUGAUGU [A42C C66A],0.57
19,GGGGGCCACAGCAGAAGCGUUCACGUCGCGGCCCCUGUCAGGUUCUGGUGAAUCUGAGAAUUCUGCUGU [A42G C57A],0.306
20,GGGGGCCACAGCAGAAGCGUUCACGUCGCGGCCCCUGUCAGGUUCUGGUGAAUCUGGGAAUUCUGCUGU [A42G C57G],0.276

row,Variant,self-cleavage
1,GGGGGCCACAGCAGAAGCGUUCACGUCGCGGCCCCUGUCAGGUUCUGGUGAAUCUGCUAAUUCUGCUGU [A42G G58U],0.978
2,GGGGGCCACAGCAGAAGCGUUCACGUCGCGGCCCCUGUCAGCCUCUGGUGAAUCUGCGAAUUCUGCUGU [A42C U43C],0.777
3,GGGGGCCACAGCAGAAGCGUUCACGUCGCGGCCCCUGUCAGCUUCCGGUGAAUCUGCGAAUUCUGCUGU [A42C U46C],0.895
4,GGGGGCCACAGCAGAAGCGUUCACGUCGCGGCCCCUGUCAGCUUCAGGUGAAUCUGCGAAUUCUGCUGU [A42C U46A],0.967
5,GGGGGCCACAGCAGAAGCGUUCACGUCGCGGCCCCUGUCAGGUUCUGGUGAAUCUGCGAUUUCUGCUGU [A42G A60U],0.329
6,GGGGGCCACAGCAGAAGCGUUCACGUCGCGGCCCCUGUCAGGUUCUGGUGAAUCUGCGACUUCUGCUGU [A42G A60C],0.405
7,GGGGGCCACAGCAGAAGCGUUCACGUCGCGGCCCCUGUCAGGUUCUGAUGAAUCUGCGAAUUCUGCUGU [A42G G48A],0.979
8,GGGGGCCACAGCAGAAGCGUUCACGUCGCGGCCCCUGUCAGCUUCUGGCGAAUCUGCGAAUUCUGCUGU [A42C U49C],0.892
9,GGGGGCCACAGCAGAAGCGUUCACGUCGCGGCCCCUGUCAGGUUCUGGUGAAUCUUCGAAUUCUGCUGU [A42G G56U],0.567
10,GGGGGCCACAGCAGAAGCGUUCACGUCGCGGCCCCUGUCAGCUUCUGGUGAAUCUGCAAAUUCUGCUGU [A42C G58A],0.925
11,GGGGGCCACAGCAGAAGCGUUCACGUCGCGGCCCCUGUCAGCUUCUGGUGAAUCUGCUAAUUCUGCUGU [A42C G58U],1.01
12,GGGGGCCACAGCAGAAGCGUUCACGUCGCGGCCCCUGUCAGGUUGUGGUGAAUCUGCGAAUUCUGCUGU [A42G C45G],0.92
13,GGGGGCCACAGCAGAAGCGUUCACGUCGCGGCCCCUGUCAGGUUCUGGUAAAUCUGCGAAUUCUGCUGU [A42G G50A],0.88
14,GGGGGCCACAGCAGAAGCGUUCACGUCGCGGCCCCUGUCAGGUUCUGGUCAAUCUGCGAAUUCUGCUGU [A42G G50C],0.789
15,GGGGGCCACAGCAGAAGCGUUCACGUCGCGGCCCCUGUCAGCUUCUGGUGAAUCUACGAAUUCUGCUGU [A42C G56A],0.812
16,GGGGGCCACAGCAGAAGCGUUCACGUCGCGGCCCCUGUCAGGUUCUGGUGAGUCUGCGAAUUCUGCUGU [A42G A52G],0.825
17,GGGGGCCACAGCAGAAGCGUUCACGUCGCGGCCCCUGUCAGCUUCUGCUGAAUCUGCGAAUUCUGCUGU [A42C G48C],0.851
18,GGGGGCCACAGCAGAAGCGUUCACGUCGCGGCCCCUGUCAGCUUCUGAUGAAUCUGCGAAUUCUGCUGU [A42C G48A],0.965
19,GGGGGCCACAGCAGAAGCGUUCACGUCGCGGCCCCUGUCAGCUUCUGUUGAAUCUGCGAAUUCUGCUGU [A42C G48U],0.988
